Results taken from EP0925358B1.

Molecular target: human CXC Chemokine Receptor 3 (CXCR3) (human) (UniProt P49682)
Experiment: cell-based or functional assay

UniProt P49682, sequence (P49682 whole entry, form in doubt): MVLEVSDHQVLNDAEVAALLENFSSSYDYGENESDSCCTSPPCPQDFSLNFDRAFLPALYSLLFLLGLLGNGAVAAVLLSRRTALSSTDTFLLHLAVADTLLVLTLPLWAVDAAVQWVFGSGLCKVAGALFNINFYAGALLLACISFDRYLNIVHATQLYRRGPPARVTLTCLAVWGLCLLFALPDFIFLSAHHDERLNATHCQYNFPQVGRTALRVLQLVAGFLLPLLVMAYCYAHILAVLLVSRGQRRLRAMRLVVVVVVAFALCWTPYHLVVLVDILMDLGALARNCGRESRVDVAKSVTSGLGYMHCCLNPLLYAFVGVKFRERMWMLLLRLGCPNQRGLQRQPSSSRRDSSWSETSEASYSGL

[Ca2+]i changes in IP-10/MigR transfectants, > 100 nM:
MIP-1β (from UniProt P13236 24-92) (ligand)
PF4 (platelet factor 4) (from UniProt P02776 32-101) (ligand)
MCP-1 (monocyte chemotactic protein-1) (from UniProt P13500 24-99) (ligand)
MCP-3 (from UniProt P80098 24-99) (ligand)
RANTES (regulated on activation, normal T cell expressed and secreted) (from UniProt P13501 24-91) (ligand)
MCP-2 (from UniProt P80075 24-99) (ligand)
ENA78 (epithelial-derived neutrophil-activating peptide 78) (from UniProt P42830 37-114) (ligand)
GCP-2 (granulocyte chemotactic protein-2) (from UniProt P80162 38-114) (ligand)
IL-8 (from UniProt P10145 28-99) (ligand)
MIP-1α (macrophage inflammatory protein-1α) (from UniProt P10147 24-92) (ligand)
NAP-2 (neutrophil-activating protein-2) (from UniProt P02775 59-128) (ligand)
GROα (from UniProt P09341 35-107) (ligand)
lymphotactin (from UniProt P47992 22-114) (ligand)
eotaxin (from UniProt P51671 24-97) (ligand)
MCP-4 (from UniProt Q99616 24-98) (ligand)
I309 (from UniProt P22362 24-96) (ligand)
